# Assay results taken from patent US20250215403A1, “Compositions and Methods for Cardiac Tissue Regeneration” (Temple University - Of The Commonwealth System Of Higher …, priority 2022, published 2025).
# B1: PSAT1 modRNA: modified mRNA with N1-methylpseudouridine, transcribed in vitro, encoding phosphoserine aminotransferase 1 (ORF SEQ ID NO: 1, RNA SEQ ID NO: 2) (nucleic acid)
# chain: AUGGAAGCCACCAAGCAAGUGGUUAACUUUGGGCCCGGGCCUGCCAAGCUGCCACACUCGGUAUUGUUGGAGAUCCAGAAGCAGCUACUAGACUACAGAGGACUCGGCAUCAGUGUGCUCGAAAUGAGUCACAGGUCAUCAGAUUUUGCCAAGAUUAUUGGCAAUACAGAGAAUCUUGUGAGGGAAUUGCUAGCUGUUCCCAACAACUACAAGGUGAUCUUUGUACAAGGAGGUGGGUCUGGCCAGUUCAGUGCUGUCCCCUUAAAUCUGAUUGGCCUGAAAGCUGGAAGGAGUGCUGACUACGUGGUGACCGGAGCUUGGUCAGCUAAGGCUGCGGAAGAAGCCAAGAAGUUUGGAACGGUGAACAUUGUCCACCCUAAACUUGGAAGUUACACAAAAAUUCCAGACCCAAGCACCUGGAACCUCAACCCGGACGCCUCCUAUGUAUACUUCUGUGCAAACGAGACUGUGCACGGGGUGGAGUUUGACUUCGUACCUGACGUCAAGGGAGCGGUGCUGGUCUGUGACAUGUCCUCAAACUUCUUAUCCAGGCCGGUGGAUGUUUCCAAGUUUGGUGUGAUUUUCGCUGGUGCUCAGAAGAAUGUUGGCUCUGCCGGGGUGACGGUGGUGAUUGUCCGGGAUGACCUGCUGGGGUUCUCGCUCAGAGAGUGCCCAUCAGUCCUUGACUACAAAGUGCAGGCUGGGAACAACUCUUUGUAUAACACACCUCCGUGCUUCAGCAUCUACGUCAUGGGCAUGGUCCUGGAAUGGAUCAAGAACAACGGCGGGGCCGCAGCCAUGGAGAAGCUCAGCUCCAUCAAAUCCCAAAUGAUUUAUGAGAUCAUUGAUAAUUCUCAAGGAUUUUAUGUAUGCCCAGUGGAGCGCCAGAAUAGAAGCAGGAUGAACAUCCCAUUUCGCAUUGGCAACGCCAAAGGAGACGAAGCUUUGGAAAAGCGGUUUCUUGACAAGGCGGUAGAACUCAACAUGAUCUCCUUGAAGGGGCACAGGUCAGUGGGAGGCAUUCGUGCCUCUCUGUAUAACGCUGUCACAACCGAAGACGUUGAGAAGCUGGCGGCCUUCAUGAAGAAUUUCUUGGAGAUGCAUCAGCUGUGA
# modifications: N1-methylpseudouridine
# Assays:
# [1] = Mouse MI model: heart histology 28 days post-MI (Masson trichrome scar size, HW/BW, WGA CM size, CD31 capillaries); assay type: in vivo
# Method: All surgical and experimental procedures with mice were performed in accordance with protocols approved by Institutional Animal Care and Use Committees at Temple University Animal Care and Use Committee (IACUC). C57BL6 or CM-specific MADM mice (8-12-weeks-old) were anesthetized with isoflurane. MI was induced by permanent ligation of the LAD, as previously described (Garikipati, V. N. S., et al., 2019, Nature Communications, 10:4317). Briefly, the left thoracic region was shaved and sterilized. After intubation, the heart was exposed through a left thoracotomy. A suture was placed to ligate the LAD. The thoracotomy and skin were sutured closed in layers. Excess air was removed from the thoracic cavity, and the mouse was removed from ventilation when normal breathing was established. In order to determine the effect of modRNA on cardiovascular outcome after MI, modRNAs (100 μg/heart) were injected into the infarct zone immediately after LAD ligation (Magadum A., et al., Circulation. 2020, 141 (15): 1249-1265). For examination of heart histology, hearts were collected at the end of each study, quickly washed in PBS, weighed, and fixed in 4% PFA for cryo-sectioning and immunostainings. In all experiments, the surgeon was blinded to the treatment group. For assessment of heart histology, hearts were collected at the end of each study. The hearts were excised, briefly washed in PBS, perfused with perfusion buffer, weighed and fixed in 4% PFA at 4° C. overnight. The heart blocks were transverse sectioned at 6-8 μm using cryostat. The heart sections were further processed for histological evaluation using immunostaining (see below) or histological scar staining using Masson's trichrome staining kit (Sigma) according to standard procedures. Measuring the ratio of heart weight to body weight was done using a scale. This ratio was calculated as the heart tissue weight relative to the mouse total body weight in grams (g).
# Mice hearts were harvested, weighed, and fixed in 4% PFA/PBS overnight on shaker and then washed with PBS for 1 hour and incubated in 30% sucrose/PBS at 4° C. for 12-18 hours. Hearts were then fixed in OCT and frozen at −80° C. (Magadum A., et al., Circulation. 2020, 141 (15): 1249-1265). Transverse heart sections (6-8 μm) were made using a cryostat. […] For immunostaining with wheat germ agglutinin (WGA) for CM size quantification, images were captured at 40× magnification, and ImageJ was used to determine the area of each cell. Quantitative analyses involved counting of multiple fields from 5-8 mouse hearts per group, and 3-4 sections/heart (˜50 cells per field assessed, for a total ˜250 cells per sample). […] BrdU positive CMs were counted in multiple fields from three independent samples per group and 3 sections/heart. […]
# [2] = Long-term survival of mice post-MI; assay type: in vivo, mouse; settings: Luc vs PSAT1 modRNA
# Method: All animal procedures were performed under protocols approved by the Temple University Animal Care and Use Committee. Male and female C57BL6 mice were used. Different modRNAs (100 μg/heart) were injected directly into the myocardium in open chest surgery. Three to ten animals used for each experiment. For mice survival, C57BL6 mice (10-12-weeks-old) treated with Luc or PSAT1 modRNAs (n=10) post induction of MI and were followed for the indicated time. Deaths were monitored and documented over time. Tamoxifen-inducible CM-restricted MADM mice (α-MHC-MADM mice) mice were generated by crossing MADM mice (Jackson laboratory) to […].^Tg(Myh6-cre/Esr1*) 1Jmk/J (Cat no. 005657) mice to get α-MHC-MADM mice (Yuko, A. E., et al., 2021, Redox Biology, 47:102162). Tamoxifen (Sigma-Aldrich) was dissolved in sesame oil at 10 mg/ml as stock solution. To induce Cre activation, tamoxifen was administered to mice by intraperitoneal (IP) injection five times (48 h interval between administrations) at 40 mg/kg body weight for adult mice (Yuko, A. E., et al., 2021, Redox Biology, 47:102162). The tissues were harvested at mentioned time for analysis.
molecule,measurement,setting,value
B1,CM size (WGA),[1],significantly decreased
same,capillary density (CD31),[1],improved
same,heart weight to body weight (HW/BW) ratio,[1],significantly increased
same,scar size (Masson's trichrome staining),[1]; compared to Luc modRNA,decreased
same,mice survival,[2],significantly improved
